Laboratory results: US20030203464

B1: Type I Rac-GEF (protein)
chain: MEYMPMEIRHDLEILQPEEIKLQEAMFELVTSEASYYKSLNLLVSHFMENERIRKILHPSEAHILFSNVLDVLAVSERFLLELEHRMEENIVISDVCDIVYRYAADHFSVYITYVSNQTYQERTYKQLLQEKAAFRELIAQLELDPKCRGLPFSSFLILPFQRITRLKLLVQNILKRVEERSERECTALDAHKELEMVVKACNEGVRKMSRTEQMISIQKKMEFKIKSVPIISHSRWLLKQGELQQMSGPKTSRTLRTKKLFHEIYLFLFNDLLVICRQIPGDKYQVFDSAPRGLLRVEELEDQGQTLANVFILRLLENADDREATYMLKASSQSEMKRWMTSLAPNRRTKFVSFTSRLLDCPQVQCVHPYVAQQPDELTLELADILNILDKTDDGWIFGERLHDQERGWFPSSMTEEILNPKIRSQNLKECFRVHKMDDPQRSQNKDRRKLGSRNRQ
B2: Type II Rac-GEF (protein)
chain: MEYMPMEIRHDLEILQPEEIKLQEAMFELVTSEASYYKSLNLLVSHFMENERIRKILHPSEAHILFSNVLDVLAVSERFLLELEHRMEENIVISDVCDIVYRYAADHFSVYITYVSNQTYQERTYKQLLQEKAAFRELIAQLELDPKCRGLPFSSFLILPFQRITRLKLLVQNILKRVEERSERECTALDAHKELEMVVKACNEGVRKMSRTEQMISIQKKMEFKIKSVPIISHSRWLLKQGELQQMSGPKTSRTLRTKKLFHEIYLFLFNDLLVICRQIPGDKYQVFDSAPRGLLRVEELEDQGQTLANVFILRLLENADDREATYMLKASSQSEMKRWMTSLAPNRRTKFVSFTSRLLDCPQVQCVHPYVAQQPDELTLELADILNILDKTDDGWIFGERLHDQERGWFPSSMTEEILNPKIRSQNLKECFRVHKMDDPQRSQNKDRRKLGSRNRQ

Cdc42, P60953, sequence (P60953 whole entry, looked up): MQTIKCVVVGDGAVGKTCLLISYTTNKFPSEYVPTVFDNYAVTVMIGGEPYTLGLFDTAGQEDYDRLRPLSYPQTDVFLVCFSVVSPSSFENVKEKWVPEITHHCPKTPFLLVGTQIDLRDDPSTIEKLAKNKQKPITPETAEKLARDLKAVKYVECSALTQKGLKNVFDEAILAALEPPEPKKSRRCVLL
RhoA, P61586, sequence (P61586 whole entry): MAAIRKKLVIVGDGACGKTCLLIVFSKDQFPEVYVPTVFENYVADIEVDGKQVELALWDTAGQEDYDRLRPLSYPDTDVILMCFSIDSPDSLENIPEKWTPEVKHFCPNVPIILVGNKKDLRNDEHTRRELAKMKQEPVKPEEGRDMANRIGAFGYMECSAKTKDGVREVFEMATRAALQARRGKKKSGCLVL

Protein	exchange activity on Rac1, RhoA and Cdc42 (Cdc42, P60953)	exchange activity on Rac1, RhoA and Cdc42 (Rac1, P63000)	exchange activity on Rac1, RhoA and Cdc42 (RhoA, P61586)
B1	but also displays activity against both RhoA and Cdc42	Rac GEF is primarily selective for Rac1	but also displays activity against both RhoA and Cdc42
B2	but also displays activity against both RhoA and Cdc42	Rac GEF is primarily selective for Rac1	but also displays activity against both RhoA and Cdc42
